Where a chain is given by its changes, count along the chain named.
Key:
[1] = target: Vg5/Vd2 T cell receptor on SKW3 cells (UniProt A0JD36); assay: flow cytometry, dose-response binding at 37 C on SKW3 cells expressing Vg5/Vd2
[2] = target: Vg9/Vd1 T cell receptor on SKW3 cells (UniProt Q99603); assay: flow cytometry, dose-response binding at 37 C on SKW3 cells expressing Vg9/Vd1
[3] = target: Vg9/Vd2 T cell receptor on SKW3_4 cells (UniProt Q99603); assay: flow cytometry, dose-response binding at 37 C on SKW3_4 cells expressing Vg9/Vd2
[4] = target: Vg5/Vd2 T cell receptor on SKW3 cells (UniProt A0JD36); assay: flow cytometry, DRC binding 37 C, SKW3 cells expressing Vg5/Vd2
[5] = target: Vg9/Vd1 T cell receptor on SKW3 cells (UniProt Q99603); assay: flow cytometry, DRC binding 37 C, SKW3 cells expressing Vg9/Vd1
[6] = target: Vg9/Vd2 T cell receptor on SKW3_4 cells (UniProt Q99603); assay: flow cytometry, DRC binding 37 C, SKW3_4 cells expressing Vg9/Vd2
[7] = target: Vg5/Vd2 T cell receptor on SKW3 cells (AG000003285; CLI000001325 (C3820A)) (UniProt A0JD36); assay: flow cytometry, DRC binding at 37°C on SKW3 cells expressing Vg5/Vd2
[8] = target: Vg9/Vd1 T cell receptor on SKW3 cells (AG000003287; CLI000001326 (C3821A)) (UniProt Q99603); assay: flow cytometry, DRC binding at 37°C on SKW3 cells expressing Vg9/Vd1
[9] = target: Vg9/Vd2 T cell receptor on SKW3_4 cells (AG000003284; CLI000001324 (C3819A)) (UniProt Q99603); assay: flow cytometry, DRC binding at 37°C on SKW3_4 cells expressing Vg9/Vd2
Chain of Vg9/Vd2 T cell receptor on SKW3_4 cells (AG000003284; CLI000001324 (C3819A)) (Q99603 21-122, chain 1 of 2): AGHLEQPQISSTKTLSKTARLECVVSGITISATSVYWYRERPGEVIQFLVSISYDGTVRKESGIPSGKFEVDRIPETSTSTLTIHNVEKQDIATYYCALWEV
Chain of Vg9/Vd2 T cell receptor on SKW3_4 cells (AG000003284; CLI000001324 (C3819A)) (A0JD36 20-115, chain 2 of 2, further chain): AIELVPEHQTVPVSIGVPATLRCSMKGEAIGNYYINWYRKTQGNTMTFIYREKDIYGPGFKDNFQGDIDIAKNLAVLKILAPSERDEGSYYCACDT

Chain of Vg9/Vd2 T cell receptor on SKW3_4 cells (Q99603 21-122, chain 1 of 2): as the sequence (Q99603 21-122, chain 1 of 2) above
Chain of Vg9/Vd2 T cell receptor on SKW3_4 cells (A0JD36 20-115, chain 2 of 2, further chain): as the sequence (A0JD36 20-115, chain 2 of 2, further chain) above
Chain of Vg9/Vd1 T cell receptor on SKW3 cells (Q99603 21-122): as the sequence (Q99603 21-122, chain 1 of 2) above
Chain of Vg5/Vd2 T cell receptor on SKW3 cells (A0JD36 20-115): as the sequence (A0JD36 20-115, chain 2 of 2, further chain) above
Chain of Vg9/Vd1 T cell receptor on SKW3 cells (AG000003287; CLI000001326 (C3821A)) (Q99603 21-122, stated change not applied): as the sequence (Q99603 21-122, chain 1 of 2) above
Chain of Vg5/Vd2 T cell receptor on SKW3 cells (AG000003285; CLI000001325 (C3820A)) (A0JD36 20-115, stated change not applied): as the sequence (A0JD36 20-115, chain 2 of 2, further chain) above

B1: VG9B472 (antibody, human IgG1, kappa, V domains shown)
VH: QVQLVESGGGLVKPGGSLRLSCAASGFTFSHYDMNWVRQAPGKGLEWVSSISSSSSYIFYADSVKGRFTISRDNAKNSLLLQMNSLRAEDTAVYHCARDRGVGDTSDYYSFGLDVWGQGTTVTVSS
VL: EIVLTQSPSSLSASVGDRVTITCRASQGIATYLAWYQQKPGKVPNLLIYAASTLQSGVPSRFSGSGSGTDFTLTISSLQPEDVATYYCQKYNSAPPWTFGQGTKVEIKR
Max. Activity (fold over background) [1]: 2.22
Max. Activity (fold over background) [2]: 328
Max. Activity (fold over background) [3]: 171

B2: VG9B157 (antibody, human IgG1, lambda, V domains shown)
VH: EVQLLESGGGLVKPGASLKLSCAASGFTFSNHGMSWVRQTSDKRLEWVASITRGGDTTYYPDNVKGRFTISRENAKNTLYLQMSSLKSDDTALYYCTRGPLTVGYAMDYWGQGTTVTVSS
VL: SSELTQDPAVSVALGQTVRITCQGDSLRSYYATWYQQKPGQAPILVIYGENNRPSGIPDRFSGSRSGNTASLTITGAQAEDEADYYCNSRDTGDHHLVFGGGTKLTVLG
Max. Activity (fold over background) [4]: 11.7
Max. Activity (fold over background) [5]: 0.96
Max. Activity (fold over background) [6]: 11

B3: VG9B68 (antibody, human IgG1, kappa, V domains shown)
VH: EVQLVESGAEVKKPGSSVKVSCKASGGTFSTYAISWVRQAPGQGLEWMGGIIPIFGTATYAQRFQDRVMITADKSTTTAYMELSSLRSEDTAVFYCARGVGWGSDYYYGLDVWGQGTMVTVSS
VL: EIVMTQSPLSSPVTLGQPASISCRSSQSLVHSDGNTYLSWLQQRPGQSPRLLIYKISNRFSGVPDRFSGSGAGTDFTLRITRVEPEDVGVYYCIQATHHPLTFGGGTRLEIKR
Max. Activity (fold over background) [4]: 207
Max. Activity (fold over background) [5]: 2.08
Max. Activity (fold over background) [6]: 124

B4: VG9B430 (antibody, human IgG1, kappa, V domains shown)
VH: EVQLLESGGGLVKPGGSLRLSCSASGFTFSSYDMNWVRQAPGKGLEWVSSISSSSSYIYYADSVKGRFTISRDNAKNSLYLQMNSLRAEDTAVYHCARDVGVTTDYYYYGMDVWGQGTMVTVSS
VL: EIVLTQSPGTLSLSPGDRATLSCRASQSVASSYLAWYQQKPGQSPRLLIYGASSRATGIPDRFSGSGSGTDFTLTISRLEPEDFAVYYCQQYGSSPPYTFGQGTKLEIKR
Max. Activity (fold over background) [1]: 1.49
Max. Activity (fold over background) [2]: 325
Max. Activity (fold over background) [3]: 143

B5: VG9B73 (antibody, human IgG1, kappa, V domains shown)
VH: EVQLVQSGGGLVKPGGSLRLSCAASGFTFSNYDMNWVRQAPGKGLEWVSSISSSSSYIYYADSVKGRFTISRDNARNSLFLQMSSLRAEDTAVYYCAREIGVTGTTYYQDYGMDVWGQGTTVTVSS
VL: B4 VL with L4M, D17E, V29F, A30S, S32N, S44A, V86L, Y98F, L106V
Max. Activity (fold over background) [1]: 1.79
Max. Activity (fold over background) [2]: 317
Max. Activity (fold over background) [3]: 118

B6: VG9B384 (antibody, human IgG1, lambda, V domains shown)
VH: QVQLQESGPALVKPTQTLTLTCTFSGFSLSSSGMCVSWIRQPPGKALEWLTLIDWFDDKYYSTSLKTRLTISKDTSKNQVVLTMTNMDPVDTATYYCARIRGTGAYYYGLDVWGQGTMVTVSS
VL: SYELMQPPSVSVSPGQTASITCSGNELGDKYASWYQQQPGQSPVLVIYQDNKRPSGIPERFSGSNSGNTATLTISGTQAMDEADYYCQAWDSSKVVFGGGTKLTVLG
Max. Activity (fold over background) [1]: 18.7
Max. Activity (fold over background) [2]: 290
Max. Activity (fold over background) [3]: 121

B7: VG9B195 (antibody, human IgG1, lambda, V domains shown)
VH: EVQLVESGGGLVKPGGSLRLSCAASGFTFSPYTMNWVRQAPGKGLEWVSSISSSSSYMYYADSVKGRFTISRDNAKNSLYLQMNSLRAEDTAVYYCARDGDLVGPTYYFDYWGQGTLVTVSS
VL: B6 VL with N25D, E26K, S33C, Q38K, D50H, N68K, S93T, K94T
Max. Activity (fold over background) [7]: 10.3
Max. Activity (fold over background) [8]: 300
Max. Activity (fold over background) [9]: 119

B8: VG9B98 (antibody, human IgG1, kappa, V domains shown)
VH: EVQLVQSGGDLVKSGGSLRLSCAASGFTFSSYSMYWVRQAPGKGLEWVSSIGSSSTYIFYADSVKGRFTISRDNAMTSLYLQMNRLGAEDSAVYYCARDGELGPFEYWGQGTLVTVSS
VL: EIVLTQSPGTLSLSPGERATLSCRASQSVSTSYLAWFQQKPGQAPRLLIFGTSSRATGIPDRFSGSGSGTDFTLTISRLEPEDFAVYHCLQYGRSPLTFGGGTKVDIKR
Max. Activity (fold over background) [1]: 2.47
Max. Activity (fold over background) [2]: 344
Max. Activity (fold over background) [3]: 154

B9: VG9B88 (antibody, human IgG1, kappa, V domains shown)
VH: EVQLVESGGGLVKPGGSLRLSCAVSGFTFSSYTMNWVRQAPGKGLEWVSSISTSSSYIDYADSVKGRFTISRDNAKKSLYLQMNSLRAEDTAVYYCARDGDMVAPIKGSFDYWGQGTLVTVSS
VL: EIVLTQSPLSLPVTPGEPASISCRSSQSLLNSDDGNTYLDWYLQKPGQSPQLLIYTLSYRASGVPDRFSGSGSGTDFTLKISRVEAEDVGVYYCMQRIEFPITFGQGTRLEIKR
Max. Activity (fold over background) [1]: 18.8
Max. Activity (fold over background) [2]: 346
Max. Activity (fold over background) [3]: 154

Source: patent publication US20220125947A1
